# Legend:
# DC-SIGN (human) [1] = biological target: DC-SIGN (human) (UniProt Q9NNX6); experiment: flow cytometry, mature DC day 9, MCM/PGE2-matured (endogenous DC-SIGN)
# DC-SIGN (human) [2] = biological target: DC-SIGN (human) (UniProt Q9NNX6); experiment: flow cytometry, mature DC day 9, LPS-matured (endogenous DC-SIGN)
# DC-SIGN (human) [3] = biological target: DC-SIGN (human) (UniProt Q9NNX6); experiment: flow cytometry, immature DC day 7 (endogenous DC-SIGN)
# DC-SIGN (human) [4] = biological target: DC-SIGN (human) (UniProt Q9NNX6); experiment: flow cytometry, mature DC day 9, TNFα-matured (endogenous DC-SIGN)
# DC-SIGN (human) [5] = biological target: DC-SIGN (human) (UniProt Q9NNX6); experiment: cell-based or functional assay
# DC-SIGN (human), sequence (Q9NNX6 whole entry): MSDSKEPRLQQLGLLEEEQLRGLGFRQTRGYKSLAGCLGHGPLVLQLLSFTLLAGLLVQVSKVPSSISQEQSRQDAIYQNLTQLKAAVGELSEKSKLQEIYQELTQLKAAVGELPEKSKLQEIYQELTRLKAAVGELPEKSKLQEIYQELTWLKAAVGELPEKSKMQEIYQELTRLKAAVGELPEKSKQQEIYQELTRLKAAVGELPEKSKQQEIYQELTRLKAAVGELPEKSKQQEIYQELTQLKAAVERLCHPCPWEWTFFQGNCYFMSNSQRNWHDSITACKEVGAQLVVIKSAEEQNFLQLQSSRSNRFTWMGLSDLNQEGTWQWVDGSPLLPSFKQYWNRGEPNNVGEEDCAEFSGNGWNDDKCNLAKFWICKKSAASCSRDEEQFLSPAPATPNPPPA
Substance,mean fluorescence of staining (mean fluorescence) (DC-SIGN (human) [1]),mean fluorescence of staining (mean fluorescence) (DC-SIGN (human) [2]),mean fluorescence of staining (mean fluorescence) (DC-SIGN (human) [3]),mean fluorescence of staining (mean fluorescence) (DC-SIGN (human) [4]),"luciferase activity (unactivated T cells, THP-SIGN cells relative to THP cells) (DC-SIGN (human) [5]) [fold]"
AZN-D1 (antibody),445,489,980,420,
HxB2 envelope (from UniProt P04578 33-856),,,,,20
